How the values were obtained:
[1] = molecular target: RBM17–UHM (RBM17/ΔNΔG), from pETM11 (human); experiment: ITC
[2] = molecular target: T1, full-length RBM17, from pETM11 (human, UniProt Q96I25 1-401); experiment: NMR titration
T1 sequence (looked up): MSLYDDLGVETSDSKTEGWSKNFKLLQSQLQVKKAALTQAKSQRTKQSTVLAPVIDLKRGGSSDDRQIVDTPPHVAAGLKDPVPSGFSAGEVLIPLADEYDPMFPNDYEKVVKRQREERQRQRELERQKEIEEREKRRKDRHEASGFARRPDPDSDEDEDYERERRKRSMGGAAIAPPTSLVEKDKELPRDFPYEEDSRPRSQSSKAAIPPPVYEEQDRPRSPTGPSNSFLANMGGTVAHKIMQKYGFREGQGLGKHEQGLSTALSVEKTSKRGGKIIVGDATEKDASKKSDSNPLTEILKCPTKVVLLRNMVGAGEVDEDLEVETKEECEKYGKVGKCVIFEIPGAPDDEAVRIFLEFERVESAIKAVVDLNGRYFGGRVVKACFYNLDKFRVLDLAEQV

[3] = molecular target: T2, GST-RBM17 (human, UniProt Q96I25 1-401); experiment: pull-down
T2 sequence (looked up): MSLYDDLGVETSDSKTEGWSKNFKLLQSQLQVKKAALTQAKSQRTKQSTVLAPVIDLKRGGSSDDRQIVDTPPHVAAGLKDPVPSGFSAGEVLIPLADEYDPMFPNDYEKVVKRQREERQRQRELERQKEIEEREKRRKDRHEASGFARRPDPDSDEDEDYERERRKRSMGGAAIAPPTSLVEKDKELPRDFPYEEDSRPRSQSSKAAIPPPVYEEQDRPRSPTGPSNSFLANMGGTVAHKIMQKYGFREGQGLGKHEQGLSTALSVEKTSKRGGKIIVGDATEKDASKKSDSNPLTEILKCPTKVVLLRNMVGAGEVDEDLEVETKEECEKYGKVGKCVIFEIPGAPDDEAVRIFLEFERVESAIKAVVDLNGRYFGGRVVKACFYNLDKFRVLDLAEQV

SAP30BP/ULM (domain or fragment)
Kd [1]: 34.4 µM

B1: full-length SAP30BP, from pETM11 (natural protein, human, UniProt Q9UHR5 1-308, looked up)
chain: MAGKKNVLSSLAVYAEDSEPESDGEAGIEAVGSAAEEKGGLVSDAYGEDDFSRLGGDEDGYEEEEDENSRQSEDDDSETEKPEADDPKDNTEAEKRDPQELVASFSERVRNMSPDEIKIPPEPPGRCSNHLQDKIQKLYERKIKEGMDMNYIIQRKKEFRNPSIYEKLIQFCAIDELGTNYPKDMFDPHGWSEDSYYEALAKAQKIEMDKLEKAKKERTKIEFVTGTKKGTTTNATSTTTTTASTAVADAQKRKSKWDSAIPVTTIAQPTILTTTATLPAVVTVTTSASGSKTTVISAVGTIVKKAKQ
binding result [2]: binds

B2: recombinant SAP30BP (GST tag removed) (natural protein, human, UniProt Q9UHR5 1-308, looked up)
chain: MAGKKNVLSSLAVYAEDSEPESDGEAGIEAVGSAAEEKGGLVSDAYGEDDFSRLGGDEDGYEEEEDENSRQSEDDDSETEKPEADDPKDNTEAEKRDPQELVASFSERVRNMSPDEIKIPPEPPGRCSNHLQDKIQKLYERKIKEGMDMNYIIQRKKEFRNPSIYEKLIQFCAIDELGTNYPKDMFDPHGWSEDSYYEALAKAQKIEMDKLEKAKKERTKIEFVTGTKKGTTTNATSTTTTTASTAVADAQKRKSKWDSAIPVTTIAQPTILTTTATLPAVVTVTTSASGSKTTVISAVGTIVKKAKQ
binding result [3]: binds

— article doi:10.1101/2022.12.30.522300 (bioRxiv, 2022)
